Measured values reported in US20240285790A1.

What was measured:
Assay in all cases: cell-based or functional assay
[1] = biological target: HIV-1YU2 Env (HIV-1 YU2) (UniProt P35961)
[2] = biological target: HIV-1BG505 Env (HIV-1 BG505)
[3] = biological target: HIV-1CM244 Env (HIV-1 CM244)
[4] = biological target: HIV-1AD8 Env (HIV-1 AD8)
[5] = biological target: HIV-1JRCSF Env (HIV-1 JRCSF) (UniProt P20871)
[6] = biological target: HIV-1ZM109 Env (HIV-1 ZM109)
[7] = biological target: HIV-1C1086 Env (HIV-1 C1086)

Chain of HIV-1YU2 Env (HIV-1 YU2) (P35961 32-843 limits assumed): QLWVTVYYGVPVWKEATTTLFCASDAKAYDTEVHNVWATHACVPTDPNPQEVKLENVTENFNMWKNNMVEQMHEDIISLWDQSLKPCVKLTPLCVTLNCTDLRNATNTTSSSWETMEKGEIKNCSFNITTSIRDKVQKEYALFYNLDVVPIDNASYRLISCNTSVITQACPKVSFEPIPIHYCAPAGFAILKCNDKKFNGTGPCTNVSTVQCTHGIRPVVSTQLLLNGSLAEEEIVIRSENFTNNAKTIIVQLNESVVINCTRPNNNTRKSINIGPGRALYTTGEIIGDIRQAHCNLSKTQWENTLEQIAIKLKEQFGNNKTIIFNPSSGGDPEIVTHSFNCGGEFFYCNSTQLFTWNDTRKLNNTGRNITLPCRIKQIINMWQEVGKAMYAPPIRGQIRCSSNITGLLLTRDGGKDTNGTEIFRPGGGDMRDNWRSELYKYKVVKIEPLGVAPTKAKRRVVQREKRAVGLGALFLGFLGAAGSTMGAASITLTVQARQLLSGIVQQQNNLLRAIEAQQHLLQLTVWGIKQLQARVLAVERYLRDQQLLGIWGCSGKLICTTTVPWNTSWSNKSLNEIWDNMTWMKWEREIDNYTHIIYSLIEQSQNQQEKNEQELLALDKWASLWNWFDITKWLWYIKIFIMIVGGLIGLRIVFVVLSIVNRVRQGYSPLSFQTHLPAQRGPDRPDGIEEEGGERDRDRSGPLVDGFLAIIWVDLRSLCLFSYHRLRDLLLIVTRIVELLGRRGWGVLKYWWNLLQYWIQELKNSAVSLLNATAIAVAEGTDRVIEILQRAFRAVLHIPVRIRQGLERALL
Chain of HIV-1JRCSF Env (HIV-1 JRCSF) (P20871 32-848 limits assumed): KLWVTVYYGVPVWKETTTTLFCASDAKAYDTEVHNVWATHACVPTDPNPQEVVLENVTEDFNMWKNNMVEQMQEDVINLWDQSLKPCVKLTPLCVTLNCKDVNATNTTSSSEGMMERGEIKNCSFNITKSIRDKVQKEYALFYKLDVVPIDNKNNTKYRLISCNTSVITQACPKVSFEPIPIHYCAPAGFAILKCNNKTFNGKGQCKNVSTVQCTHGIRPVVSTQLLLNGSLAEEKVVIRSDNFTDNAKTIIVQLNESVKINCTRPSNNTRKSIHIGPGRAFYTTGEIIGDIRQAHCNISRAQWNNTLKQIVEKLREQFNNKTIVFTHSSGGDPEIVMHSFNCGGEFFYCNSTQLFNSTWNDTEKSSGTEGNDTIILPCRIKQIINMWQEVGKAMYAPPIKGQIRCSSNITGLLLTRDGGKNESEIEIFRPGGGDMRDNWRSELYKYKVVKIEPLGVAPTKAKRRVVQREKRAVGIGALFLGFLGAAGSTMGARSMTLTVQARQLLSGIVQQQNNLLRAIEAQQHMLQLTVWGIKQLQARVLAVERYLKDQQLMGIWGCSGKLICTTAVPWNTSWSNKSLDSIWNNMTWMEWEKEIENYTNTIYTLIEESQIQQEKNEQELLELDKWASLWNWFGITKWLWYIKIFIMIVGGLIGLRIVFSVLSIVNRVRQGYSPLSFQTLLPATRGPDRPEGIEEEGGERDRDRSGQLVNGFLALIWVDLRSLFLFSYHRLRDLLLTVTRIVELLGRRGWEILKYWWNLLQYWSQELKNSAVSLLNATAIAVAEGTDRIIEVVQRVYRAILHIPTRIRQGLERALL

## 17b-CD4 conjugate
[1]
  Neutralization IC50: 0.082 µg/mL
[2]
  Neutralization IC50: 2.64 µg/mL
[3]
  Neutralization IC50: 0.609 µg/mL
[4]
  Neutralization IC50: 0.877 µg/mL
[5]
  Neutralization IC50: 0.807 µg/mL
[6]
  Neutralization IC50: 0.113 µg/mL
[7]
  Neutralization IC50: 0.269 µg/mL
